Legend:
[1] = biological target: T1, HPV 16 E7 peptide on HLA-A*02:01 (human); experiment: multimer staining
T1 peptide: YMLDLQPET

[2] = biological target: T2, HPV 16 E6 peptide on HLA-A*02:01 (human); experiment: multimer staining
T2 peptide: TIHDIILECV

[3] = biological target: T3, HPV 16 E7(11-19), single-substitution variant E8K (synthetic scanning library) peptide on HLA-A*02:01 (human); experiment: activation reporter or marker
T3 peptide: YMLDLQPKT

[4] = biological target: T4, HPV 16 E7(11-19), single-substitution variant E8I (synthetic scanning library) peptide on HLA-A*02:01 (human); experiment: activation reporter or marker
T4 peptide: YMLDLQPIT

[5] = biological target: T5, HPV 16 E7(11-19), single-substitution variant E8N (synthetic scanning library) peptide on HLA-A*02:01 (human); experiment: activation reporter or marker
T5 peptide: YMLDLQPNT

[6] = biological target: T6, HPV 16 E7(11-19), single-substitution variant L3V (synthetic scanning library) peptide on HLA-A*02:01 (human); experiment: activation reporter or marker
T6 peptide: YMVDLQPET

[7] = biological target: T7, HPV 16 E7(11-19), single-substitution variant M2Q (synthetic scanning library) peptide on HLA-A*02:01 (human); experiment: activation reporter or marker
T7 peptide: YQLDLQPET

[8] = biological target: T8, HPV 16 E7(11-19), single-substitution variant E8G (synthetic scanning library) peptide on HLA-A*02:01 (human); experiment: activation reporter or marker
T8 peptide: YMLDLQPGT

[9] = biological target: T9, HPV 16 E7(11-19), single-substitution variant Y1T (synthetic scanning library) peptide on HLA-A*02:01 (human); experiment: activation reporter or marker
T9 peptide: TMLDLQPET

[10] = biological target: T10, HPV 16 E7(11-19), single-substitution variant P7C (synthetic scanning library) peptide on HLA-A*02:01 (human); experiment: activation reporter or marker
T10 peptide: YMLDLQCET

[11] = biological target: T11, HPV 16 E7(11-19), single-substitution variant E8M (synthetic scanning library) peptide on HLA-A*02:01 (human); experiment: activation reporter or marker
T11 peptide: YMLDLQPMT

[12] = biological target: T12, HPV 16 E7(11-19), single-substitution variant M2L (synthetic scanning library) peptide on HLA-A*02:01 (human); experiment: activation reporter or marker
T12 peptide: YLLDLQPET

[13] = biological target: T13, HPV 16 E7(11-19), single-substitution variant Y1A (synthetic scanning library) peptide on HLA-A*02:01 (human); experiment: activation reporter or marker
T13 peptide: AMLDLQPET

[14] = biological target: T14, HPV 16 E7(11-19), single-substitution variant T9F (synthetic scanning library) peptide on HLA-A*02:01 (human); experiment: activation reporter or marker
T14 peptide: YMLDLQPEF

[15] = biological target: T15, HPV 16 E7(11-19), single-substitution variant E8R (synthetic scanning library) peptide on HLA-A*02:01 (human); experiment: activation reporter or marker
T15 peptide: YMLDLQPRT

[16] = biological target: T16, HPV 16 E7(11-19), single-substitution variant Y1L (synthetic scanning library) peptide on HLA-A*02:01 (human); experiment: activation reporter or marker
T16 peptide: LMLDLQPET

[17] = biological target: T17, HPV 16 E7(11-19), single-substitution variant D4N (synthetic scanning library) peptide on HLA-A*02:01 (human); experiment: activation reporter or marker
T17 peptide: YMLNLQPET

[18] = biological target: T18, HPV 16 E7(11-19), single-substitution variant L3A (synthetic scanning library) peptide on HLA-A*02:01 (human); experiment: activation reporter or marker
T18 peptide: YMADLQPET

[19] = biological target: T19, HPV 16 E7(11-19), single-substitution variant T9I (synthetic scanning library) peptide on HLA-A*02:01 (human); experiment: activation reporter or marker
T19 peptide: YMLDLQPEI

[20] = biological target: T20, HPV 16 E7(11-19), single-substitution variant Y1I (synthetic scanning library) peptide on HLA-A*02:01 (human); experiment: activation reporter or marker
T20 peptide: IMLDLQPET

[21] = biological target: T21, HPV 16 E7(11-19), single-substitution variant E8V (synthetic scanning library) peptide on HLA-A*02:01 (human); experiment: activation reporter or marker
T21 peptide: YMLDLQPVT

[22] = biological target: T22, HPV 16 E7(11-19), single-substitution variant E8A (synthetic scanning library) peptide on HLA-A*02:01 (human); experiment: activation reporter or marker
T22 peptide: YMLDLQPAT

[23] = biological target: T23, HPV 16 E7(11-19), single-substitution variant E8T (synthetic scanning library) peptide on HLA-A*02:01 (human); experiment: activation reporter or marker
T23 peptide: YMLDLQPTT

[24] = biological target: T24, HPV 16 E7(11-19), single-substitution variant D4C (synthetic scanning library) peptide on HLA-A*02:01 (human); experiment: activation reporter or marker
T24 peptide: YMLCLQPET

[25] = biological target: T25, HPV 16 E7(11-19), single-substitution variant T9A (synthetic scanning library) peptide on HLA-A*02:01 (human); experiment: activation reporter or marker
T25 peptide: YMLDLQPEA

B1: TCR 57 (TCR, V domains shown)
Valpha: TQLLEQSPQFLSIQEGENLTVYCNSSSVFSSLQWYRQEPGEGPVLLVTVVTGGEVKKLKRLTFQFGDARKDSSLHITAAQPGDTGLYLCAGARNFNKFYFGSGTKLNVKP
Vbeta: GAVVSQHPSWVICKSGTSVKIECRSLDFQATTMFWYRQFPKQSLMLMATSNEGSKATYEQGVEKDKFLINHASLTLSTLTVTSAHPEDSSFYICSARSWRGGLEQFFGPGTRLTVL
B1: recognises [1]; no recognition [2]; recognises [3]. B1: recognises [4]; recognises [5]; recognises [6]. B1: recognises [7]; recognises [8]; recognises [9]. B1: recognises [10]; recognises [11]; recognises [12]. B1: recognises [13]; recognises [14]; recognises [15]. B1: recognises [16]; recognises [17]; recognises [18]. B1: recognises [19]; recognises [20]; recognises [21]. B1: recognises [22]; recognises [23]; recognises [24]. B1: recognises [25].
